Measured values reported in the supplement of paper PMC9170038.

System: MS2 coat protein
Assay: apparent KD of MS2 coat protein; designed switch direction (-1 OFF switch, 1 ON switch): -1; higher = weaker reporter binding
How it was run: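 Designed RNA switches with common flanks were made on Illumina chips by stalled E. coli RNA polymerase. Titration with SNAP-549-labelled MS2 coat protein doubled from 0.7 or 1.5 nM up to 3 µM. Apparent KD is each design's median over clusters after curve-fitting normalised fluorescence.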

[1] = Eterna round: R95, input ligand: FMN 200 uM
[2] = Eterna round: R95, input ligand: microRNA oligo, concentration not stated
[3] = Eterna round: R95, input ligand: none
[4] = input ligand: microRNA oligo, concentration not stated

Row | Sequence | apparent KD of MS2 coat protein [1] [nM] | apparent KD of MS2 coat protein [2] [nM] | apparent KD of MS2 coat protein [3] [nM] | apparent KD of MS2 coat protein (input ligand: FMN 200 uM) [nM] | apparent KD of MS2 coat protein (input ligand: none) [nM] | apparent KD of MS2 coat protein [4] [nM]
1 | AAAAAACAAGGAUAUACGGAUGAAGAGAGUCUUAAUUUUUGACAUGAGGAUCACCCAUGUAGAAGGUGUUAAAA [JR_Exclusion2_Sub017] (puzzle: Exclusion 2) | 58.9 | 44.4 | 50.5 | – | – | –
2 | GUAUAACAUGAGGAUCACCCAUGUCAGGAUAUGCGAAUUUCAUCAAAAGAUGAAAUUUGCAGAAGGGACUGUAC [Omei Ex1 A25] (Eterna round: R97, puzzle: Exclusion 1) | – | – | – | 73.9 | 67.6 | –
3 | UAAAGUAUAUAGGAUAUCUAGCUGGUAACAGCUAGAGAAGGAUGUACAUGAGGAUCACCCAUGUAGAUCUCAAA [Ex6/15-A3] (Eterna round: R97, puzzle: Exclusion 6) | – | – | – | 19.3 | 12.8 | –
4 | ACAAGCUUUUAGAUUUUCAACAUGAGGAUCACCCAUGUUCGUCUUAUGCUAGUGCUAGUGCGGUGUACUGGUAUUGG [JL TOV1 3.79 sellena mod] (Eterna round: R97, puzzle: Sensor, turn-off variant 1) | – | – | – | 19.2 | 19.5 | –
5 | GUCAUCUAUCAUGGGAUAAACAUGAGGAUCACCCAUGUAUACAAGUUUUUUGCUCGUCUUAUAAUAAGAUAGAUGAC [Antenna 4 - Jieux - Sensor, turn-off variant 1] (Eterna round: R97, puzzle: Sensor, turn-off variant 1) | – | – | – | 16.6 | 16.1 | –
6 | ACAAGCUUAAUCAGUAUGAACAUGAGGAUCACCCAUGUAAAAGGGAAGACAAUUGGGUUAUUUAAAGCUCGUCUUAU [JR_STOV1_Sub016] (Eterna round: R97, puzzle: Sensor, turn-off variant 1) | – | – | – | 57.6 | 67.2 | –
7 | GGUGGACAUGAGGAUCACCCAUGUGAGGAUAUCGGCUGGCUACUCGCUGACGGCUGCUCGAGAAGGCGCAUUGU [Exclusion 1 V88] (puzzle: Exclusion 1) | – | 41.7 | – | – | – | –
8 | UAUUAGCAAGCGAGAUCCCACAUGAGGAUCACCCAUGUGCUCGUCUUAUAUAAGGUACUGUACGAUAGUACGGUACC [Mat - Sensor, turn-off var - Eli Mod - D28] (Eterna round: R97, puzzle: Sensor, turn-off variant 1) | – | – | – | 16.7 | 14.6 | –
9 | GUUAAGGUAGGAUAUACGAUAAUAUAGGGUAGAAUUAUAACACAUGAGGAUCACCCAUGUAGAAGGACCAAUUG [Mat - Exclusion 2 - Mod of my Tesla design - D52] (puzzle: Exclusion 2) | – | 25.8 | – | – | – | –
10 | GAAGCACAUGAGGAUCACCCAUGUGAGGAUAUCCGUCUGGUCCGGCCGGGCCAGUACCGGAGAAGGCGCGUCGA [Excls1-Va] (puzzle: Exclusion 1) | – | 27.6 | – | – | – | –
11 | AUCGGCUCAGUCAGGAUAUGAUUGAAUCGUUGCAAUUAGAAGGGACAUGAGGAUCACCCAUGUGCGGUGCGGUC [Eternabot (L1) Solution 27] (Eterna round: R97, puzzle: Brourd's mod of Exclusion 4) | – | – | – | 178 | 169 | –
12 | GAUUGACAUGAGGAUCACCCAUGUGAGGAUAUCGGCUGGACCGUGUUGGCUUCGGUUUCGAGAAGGCGCAUAGG [Exclusion 1 V45] (puzzle: Exclusion 1) | 52.9 | 90.1 | 102 | – | – | –
13 | CUAAAUCAUGUAGGAUAUGCGUGGCAAAGCUAUGCAGAAGGACAUGAGGAUCACCCAUGUCUUUCCGUCUGAGUACAGACGGGA [Mat - Exclusion NG 1 - Mod of JL - D46] (Eterna round: R96, puzzle: Exclusion NG 1) | – | – | – | 166 | 26.6 | 21.7
14 | CUACUGAAGCUUUGCUUUAGUCGACAUGAGGAUCACCCAUGUUAGGAUAUGGUAGGCUUUGCUUACUAGAAGGAUAGAGUGAUC [salish99_ExNG3_r04_603] (Eterna round: R96, puzzle: Exclusion NG 3) | – | – | – | 121 | 54.8 | 55.9
15 | UAUAUAUAGUAAGGAUAUGUAUAUAUUUUAUGAACAGAAGGUACUGACAUGAGGAUCACCCAUGUUUUAGUGUGGGCAUGUAGA [JMF's solution 70] (Eterna round: R96, puzzle: Exclusion NG 1) | – | – | – | 49.4 | 64.8 | 38.8
16 | UAAUGUAUAUAGGAUAUCUAGCUGGUAACAGCUAGAGAAGGAUGUACAUGAGGAUCACCCAUGUAAAUCUCAAU [Ex6/12-B2] (Eterna round: R97, puzzle: Exclusion 6) | – | – | – | 32.5 | 20.9 | –
17 | AGAUCUAGGACAGGAUAUAUAGAUGGCUUCAUCGAAGAUGAAGCCAUUACAUGAGGAUCACCCAUGUAGAAGGGUCCUAGAUCA [Omei Exc(NG) 2Av7] (Eterna round: R96, puzzle: Exclusion NG 2) | – | – | – | 11.2 | 16.1 | 14.3

Row | Sequence | apparent KD of MS2 coat protein [1] [nM] | apparent KD of MS2 coat protein [2] [nM] | apparent KD of MS2 coat protein [3] [nM] | apparent KD of MS2 coat protein (input ligand: FMN 200 uM) [nM] | apparent KD of MS2 coat protein (input ligand: none) [nM] | apparent KD of MS2 coat protein [4] [nM]
18 | ACAUGAGGAUCACCCAUGUAAUCAUGAUGGCUGAUGUAGACUCAGGAUAUGUGUGGCUUUCUAUCACAGAAGGGAGAAGACUGG [Deportation 37 - Jieux - Exclusion NG 3] (Eterna round: R96, puzzle: Exclusion NG 3) | – | – | – | 59.7 | 129 | 116
19 | UCACGGGACUAAGGAUAUACAUGAACCAUUUUUGUAGAAGGUAGAAUGUUUGAUCAUAAACUAAACAUGAGGAUCACCCAUGUU [JR_ExcNG1_Sub090] (Eterna round: R96, puzzle: Exclusion NG 1) | – | – | – | – | – | 16.9
20 | UUUAGUUCAGGAUAUGUAGAUUUUAACAUGAGGAUCACCCAUGUAGAUCCUGAUCCUGCUACAGAAGGGAAAAUUU [Mat - Exclusion 5 - Eli Mod - D9] (Eterna round: R97, puzzle: Exclusion 5) | – | – | – | 24.4 | 25.6 | –
21 | CUAAAUCAUGUAGGAUAUGCGUGGCAAAGCUAUGCAGAAGGACAUGAGGAUCACCCAUGUCAUUCCGUCUGCGUACAGACGGGA [Mat - Exclusion NG 1 - Mod of JL - D49] (Eterna round: R96, puzzle: Exclusion NG 1) | – | – | – | 187 | 24.9 | 19.9
22 | UGCAUGUGAGGAUAUGUACCUGAGUGCUUUGCGCUCAGGAAACAGAAGGCACAUGAGGAUCACCCAUGUGAAAA [jl-ex4-4.46 ViennaUCT mod] (Eterna round: R97, puzzle: Exclusion 4) | – | – | – | 74.1 | 208 | –
23 | CCAAUCAGAGGAUAUGCGAAUAAAUAAAACUUUUUUUUUUAACAUGAGGAUCACCCAUGUAGAAGGCUGUAACC [Ex2 #43] (Eterna round: R97, puzzle: Exclusion 2) | – | – | – | 31.5 | 25.4 | –
24 | GGAUUCUCGCAAGGAUAUCGCUUACAUCCUAAGCGAGAAGGUGCUACCAACUUGAGGAUCACCCAAGUGACUUGGGCCUAAAUA [Mutated MS2 EX1.27] (Eterna round: R96, puzzle: Exclusion NG 1) | – | – | – | 112 | 62.9 | 34.2
25 | ACAUGAGGAUCACCCAUGUGAAAGAAAUGGCUGACUUUGAGCUAGGAUAUUUGUGCAUAUCAAACAAAGAAGGAGCAUUACUGG [Deportation 99 - Jieux - Exclusion NG 3] (Eterna round: R96, puzzle: Exclusion NG 3) | – | – | – | 20.4 | 20.6 | 16.9
26 | GUUCUGACAGGAUAUACAUGAGGAUCACCCAUGUGCCCUUAGAGAUGCAAAGCAUCUUGUAGAAGGGUCUGAAC [Omei Ex3 Model Bachelor's Dilema v27] (Eterna round: R97, puzzle: Exclusion 3) | – | – | – | 42.1 | 37.6 | –
27 | UAUGUUGUUGUGAGGAUAUACUUUGUUUGGUCGUAGUAGAAGGCACAUGAGGAUCACCCAUGUAGAUUUUUGGU [JR_BME4_Sub009] (puzzle: Brourd's mod of Exclusion 4) | – | 20 | – | – | – | –
28 | UUAAUGUGAGGAUAUCAGGUGUGCUAGAGAACUGGUACAUCUGAGAAGGCACAUGAGGAUCACCCAUGUUCUUC [Mat - Exclusion 4 - Mod of JL - D55] (puzzle: Exclusion 4) | – | 36.8 | – | – | – | –
29 | CUGAUUCUAGUAAGGAUAUCGGCGUGCACAGCAGCCGAGAAGGUACAUGAGGAUCACCCAUGUUGCUUCAACUU [Eternabot (Original) Solution 43] (Eterna round: R97, puzzle: Brourd's mod of Exclusion 4) | – | – | – | 69.5 | 31.2 | –
30 | GUAUGUUAUGAGGAUAUCGGUGAACAUACACAUCGAGAAGGCAUGACAUGAGGAUCACCCAUGUCAAGGAUGAA [Exclusion 6 - B - 18:a] (puzzle: Exclusion 6) | 34.1 | 16.9 | 18.3 | – | – | –
31 | AAGAAACAUGAGGAUCACCCAUGUGAGGAUAUGAUUAAGAAAAGAAAAGAAAGAAGAGUCAGAAGGCACAAAGG [salish99-ex1_r3_063] (puzzle: Exclusion 1) | 84.9 | 48.8 | 61.8 | – | – | –
32 | AACCUACAUGAGGAUCACCCAUGUGAGGAUAUAUUGUUAUGGAUGUUAUUUUGUAGUGGUAGAAGGCGCGUGAU [JR_Exc1_Sub024] (Eterna round: R97, puzzle: Exclusion 1) | – | – | – | 19 | 15.9 | –
33 | CUGAAUAGAGGAUAUUGUACUGCUGACAUGAGGAUCACCCAUGUAUGUUAACUCGGCCGUCGAGAAGGCUAACAAA [BotMod 13 - Jieux - Exclusion 5] (Eterna round: R97, puzzle: Exclusion 5) | – | – | – | 16.9 | 41.2 | –
